# Molecular target: Avi-barnase (G34C/H102A), biotinylated, labeled with Alexa 488
# Experiment: FRET or BRET; single-molecule FRET; donor-labeled barnase immobilised on PEG-coated glass via biotin-NeutrAvidin, acceptor-labeled barstar (20 nM) in solution; 10 mM Tris pH 7, 0 mM NaCl and higher (printed kA at 0 mM NaCl); 22 °C; illumination 0.3 μW; two-state maximum likelihood analysis with correction for acceptor photobleaching
substance,measurement,value
"Cys-barstar, labeled with Alexa 647 (natural protein)",kon,1e+08 M⁻¹ s⁻¹

# — PMC6226484
